{"source": "paper PMC4081077", "about": "“Sequence-specific interactions of Rep proteins with ssDNA in the AT-rich region of the plasmid replication origin”", "binders": {"B1": {"name": "ssDNA DUEoriV bottom swap R (ssDNA)", "DNA": "CCACCGCATTGGACAGAAAATTGGACGAAAATTTGGTTATAAATTAAACCTTGTTTTTAACCAGGGCTGC"}, "B2": {"name": "ssDNA DUEoriV bottom swap M2-R (ssDNA)", "DNA": "CCACCGCATTGGACAGAAAATTGGACGAAAATAACCAATATTTATAAACCTTGTTTTTAACCAGGGCTGC"}, "B3": {"name": "ssDNA DUEoriV bottom swap M1-R (ssDNA)", "DNA": "CCACCGCATTGGACAGAAAAAACCTGCTTTTAAACCAATATTTATAAACCTTGTTTTTAACCAGGGCTGC"}, "B4": {"name": "ssDNA DUEoriV top (ssDNA)", "DNA": "CCACCGCTAACCTGTCTTTTAACCTGCTTTTAAACCAATATTTATAAACCTTGTTTTTAACCAGGGCTGC"}, "B5": {"name": "ssDNA DUEoriS bottom (ssDNA)", "DNA": "GCTCTAAAAAAGAAGATCTAAAAACTATAAAAAAAATAATTATAAAAATATCCCCGTG"}, "B6": {"name": "dsDNA iterons (five RK2 iterons) (dsDNA)", "DNA 1": "CCTGCGGTATTGACACTTGAGGGGCGCGACTACTGACAGATGAGGGGCGCGATCCTTGACACTTGAGGGGCAGAGTGATGACAGATGAGGGGCGCACCTATTGACATTTGAGGGGCTGTCCACAGGCAG", "DNA 2": "CTGCCTGTGGACAGCCCCTCAAATGTCAATAGGTGCGCCCCTCATCTGTCATCACTCTGCCCCTCAAGTGTCAAGGATCGCGCCCCTCATCTGTCAGTAGTCGCGCCCCTCAAGTGTCAATACCGCAGG"}}, "key": {"[1]": {"molecular_target": "T1, TrfA-33 G254D/S267L (monomeric) (plasmid RK2, UniProt P07676 98-382, G254D;S267L)", "T1 sequence": "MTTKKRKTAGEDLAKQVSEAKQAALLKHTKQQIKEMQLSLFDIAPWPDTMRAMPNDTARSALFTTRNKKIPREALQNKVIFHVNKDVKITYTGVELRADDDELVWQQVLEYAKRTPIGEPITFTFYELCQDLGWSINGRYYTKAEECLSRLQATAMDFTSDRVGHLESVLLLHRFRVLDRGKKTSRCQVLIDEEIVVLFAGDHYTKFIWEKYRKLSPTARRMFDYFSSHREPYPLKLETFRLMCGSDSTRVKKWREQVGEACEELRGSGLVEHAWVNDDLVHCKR", "experiment": "SPR; 0.1-1 uM TrfA; response over five times lower than wild type; EMSA: 40 mM HEPES-KOH pH 8, 25 mM Tris-HCl pH 7.6, 100 mM NaCl, 4% sucrose, 4 mM DTT, 80 ug/ml BSA, 32 C 20 min, 1 pmol probe, 5-20 pmol Rep; SPR: HBS-EP (150 mM NaCl, 10 mM HEPES pH 7.4, 3 mM EDTA, 0.005% P20)", "details": "protein: recombinant; label: Alexa555 3' tailed (EMSA); immobilized on streptavidin chip (SPR); fluorescent (gel filtration)"}, "[2]": {"molecular_target": "T1, TrfA-33 G254D/S267L (monomeric)", "experiment": "EMSA; EMSA: 40 mM HEPES-KOH pH 8, 25 mM Tris-HCl pH 7.6, 100 mM NaCl, 4% sucrose, 4 mM DTT, 80 ug/ml BSA, 32 C 20 min, 1 pmol probe, 5-20 pmol Rep; SPR: HBS-EP (150 mM NaCl, 10 mM HEPES pH 7.4, 3 mM EDTA, 0.005% P20)", "details": "protein: recombinant; label: Alexa555 3' tailed (EMSA); immobilized on streptavidin chip (SPR); fluorescent (gel filtration)"}, "[3]": {"molecular_target": "T1, TrfA-33 G254D/S267L (monomeric)", "experiment": "EMSA; up to 20 pmol TrfA per 1 pmol probe; EMSA: 40 mM HEPES-KOH pH 8, 25 mM Tris-HCl pH 7.6, 100 mM NaCl, 4% sucrose, 4 mM DTT, 80 ug/ml BSA, 32 C 20 min, 1 pmol probe, 5-20 pmol Rep; SPR: HBS-EP (150 mM NaCl, 10 mM HEPES pH 7.4, 3 mM EDTA, 0.005% P20)", "details": "protein: recombinant; label: Alexa555 3' tailed (EMSA); immobilized on streptavidin chip (SPR); fluorescent (gel filtration)"}, "[4]": {"molecular_target": "RepE R118P (monomeric) (plasmid F, UniProt P03856 1-251, R118P)", "experiment": "gel filtration; tripartite with plasmid cccDNA; EMSA: 40 mM HEPES-KOH pH 8, 25 mM Tris-HCl pH 7.6, 100 mM NaCl, 4% sucrose, 4 mM DTT, 80 ug/ml BSA, 32 C 20 min, 1 pmol probe, 5-20 pmol Rep; SPR: HBS-EP (150 m)"}, "[5]": {"molecular_target": "T1, TrfA-33 G254D/S267L (monomeric)", "experiment": "SPR; 0.1-1 uM TrfA; higher affinity than bottom ssDNA; EMSA: 40 mM HEPES-KOH pH 8, 25 mM Tris-HCl pH 7.6, 100 mM NaCl, 4% sucrose, 4 mM DTT, 80 ug/ml BSA, 32 C 20 min, 1 pmol probe, 5-20 pmol Rep; SPR: HBS-EP (150 mM NaCl, 10 mM HEPES pH 7.4, 3 mM EDTA, 0.005% P20)", "details": "protein: recombinant; label: biotin; blunt"}}}
{"binder": "B1", "values": [{"measurement": "binding signal", "setting": "[1]", "result": "< 0.2 SPR response relative to N2"}]}
{"binder": "B2", "values": [{"measurement": "binding result", "setting": "[2]", "result": "no binding"}]}
{"binder": "B3", "values": [{"measurement": "binding result", "setting": "[2]", "result": "no binding"}]}
{"binder": "B4", "values": [{"measurement": "binding result", "setting": "[3]", "result": "no binding"}]}
{"binder": "B5", "values": [{"measurement": "binding result", "setting": "[4]", "result": "binds"}]}
{"binder": "B6", "values": [{"measurement": "binding result", "setting": "[5]", "result": "binds"}]}
